Data taken from paper PMC8769072, “Proteome‐scale mapping of binding sites in the unstructured regions of the human proteome” (Molecular Systems Biology, 2022).
Where no end group is shown, it is not given here. [ ]: non-standard residue; d: D form. pY = N[C@@H](Cc1ccc(OP(=O)(O)O)cc1)C(=O)O; pT = C[C@@H](OP(=O)(O)O)[C@H](N)C(=O)O; pS = N[C@@H](COP(=O)(O)O)C(=O)O

These binders were tested against CLTC (clathrin heavy chain 1, Clathrin-propeller domain) (human) (UniProt Q00610) (assay: fluorescence polarisation; competition: unlabelled peptide in serial dilution against the protein domain (master mix at four times the KD) with its FITC-labelled probe peptide; 50 mM KPO4 or NaPO4 pH 7.5; Ki calculated from IC50).

Binder	IC50 [µM]	Ki [µM]
Ac-YVSGNLIDLYGNQGLP [MITF 256-271 peptide]	150	63
Ac-YVSGNLIDLCGNQGLP [MITF 256-271 peptide, Y265C]	220	100
Ac-LIDLPLIDFCDTPEAHY [GTSE1 645-660 peptide]	97	39
Ac-LIDLPLIDFCD[pT]PEAHY [GTSE1 645-660 peptide, phosphothreonine]	87	34

The binders below were run against KEAP1 Kelch (kelch-like ECH-associated protein 1, Kelch domain) (human) (UniProt Q14145) in the same assay as above.
Sequence of KEAP1 Kelch (kelch-like ECH-associated protein 1, Kelch domain) (human) (Q14145 whole entry, the tested form may be a part): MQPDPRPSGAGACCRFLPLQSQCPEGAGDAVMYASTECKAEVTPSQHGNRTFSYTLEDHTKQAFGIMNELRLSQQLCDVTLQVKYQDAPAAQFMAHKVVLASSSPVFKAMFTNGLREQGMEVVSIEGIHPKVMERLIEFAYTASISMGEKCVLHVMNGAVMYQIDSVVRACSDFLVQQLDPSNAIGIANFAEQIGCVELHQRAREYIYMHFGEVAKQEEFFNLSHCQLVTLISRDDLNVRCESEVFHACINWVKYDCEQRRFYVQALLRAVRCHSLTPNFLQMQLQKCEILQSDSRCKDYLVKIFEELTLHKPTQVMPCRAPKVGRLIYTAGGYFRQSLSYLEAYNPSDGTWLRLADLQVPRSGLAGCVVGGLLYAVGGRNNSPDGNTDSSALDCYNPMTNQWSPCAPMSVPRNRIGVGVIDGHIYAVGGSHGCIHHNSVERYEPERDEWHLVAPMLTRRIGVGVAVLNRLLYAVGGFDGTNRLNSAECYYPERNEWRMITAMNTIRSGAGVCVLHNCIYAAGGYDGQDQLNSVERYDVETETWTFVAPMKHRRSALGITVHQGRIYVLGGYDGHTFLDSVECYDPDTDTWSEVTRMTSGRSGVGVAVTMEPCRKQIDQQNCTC

Binder	IC50 [µM]	Ki [µM]
Ac-YDEEKGEFLPIQPAQH-NH2 [NFE2L2 77-91 peptide with an extra N-terminal Y, T80K]	2540	611
YDPVTGEWKSLAKLPE-NH2 [KLHL24 335-350 peptide]	80	19
IDPSTGERFPVTDAVN-NH2 [PLEC 4459-4474 peptide]	6.1	1.5
Ac-GIIDPSTGERFPVTDY-NH2 [PLEC 4457-4471 peptide with an extra C-terminal Y, wild type]	1.5	0.49
GFDAVTGEFTGMPEQW-NH2 [PAK1 88-103 peptide]	44	11
Ac-YDEETGEFLPIQPAQH-NH2 [NFE2L2 77-91 peptide with an extra N-terminal Y, wild type]	0.31	0.071
Ac-LIYVDKENGEPGTRVV-NH2 [PTTG1 4-19 peptide]	3	–
Ac-YDEKTGEFLPIQPAQH-NH2 [NFE2L2 77-91 peptide with an extra N-terminal Y, E79K]	1650	397

What follows are binders tested against KPNB1 HEAT (importin subunit beta-1, HEAT repeat) (human) (UniProt Q14974) in the same assay as above.
Sequence of KPNB1 HEAT (importin subunit beta-1, HEAT repeat) (human) (Q14974 whole entry): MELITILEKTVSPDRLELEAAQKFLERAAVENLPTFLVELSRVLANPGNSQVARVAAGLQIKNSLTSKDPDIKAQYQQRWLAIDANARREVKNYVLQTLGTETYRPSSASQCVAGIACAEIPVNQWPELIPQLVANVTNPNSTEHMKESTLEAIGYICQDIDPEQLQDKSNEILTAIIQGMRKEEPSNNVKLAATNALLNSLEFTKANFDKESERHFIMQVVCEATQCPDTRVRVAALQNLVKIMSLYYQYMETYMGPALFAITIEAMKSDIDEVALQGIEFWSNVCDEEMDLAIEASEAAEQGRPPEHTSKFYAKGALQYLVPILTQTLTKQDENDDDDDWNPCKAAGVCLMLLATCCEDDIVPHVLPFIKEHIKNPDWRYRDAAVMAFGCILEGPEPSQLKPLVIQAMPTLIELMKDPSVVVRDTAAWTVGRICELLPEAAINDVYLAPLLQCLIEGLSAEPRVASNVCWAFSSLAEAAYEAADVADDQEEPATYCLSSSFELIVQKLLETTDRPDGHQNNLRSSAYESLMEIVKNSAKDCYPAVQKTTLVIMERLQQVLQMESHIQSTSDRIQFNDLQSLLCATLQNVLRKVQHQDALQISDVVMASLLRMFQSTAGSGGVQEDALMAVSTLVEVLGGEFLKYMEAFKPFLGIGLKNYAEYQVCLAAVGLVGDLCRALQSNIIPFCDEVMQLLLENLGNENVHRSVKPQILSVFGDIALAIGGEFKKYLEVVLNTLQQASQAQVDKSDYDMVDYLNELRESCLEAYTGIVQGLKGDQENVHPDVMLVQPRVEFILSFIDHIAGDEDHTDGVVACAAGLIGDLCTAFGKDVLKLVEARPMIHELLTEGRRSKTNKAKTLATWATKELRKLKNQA

Binder	IC50 [µM]	Ki [µM]
Ac-NPPVATFVFGQSSNPY-NH2 [NUP153 1220-1234 peptide with an extra C-terminal Y]	49	11
Ac-AYAPPVFVFQKDKGQK-NH2 [RANBP3 11-26 peptide]	2200	–

The binders below were run against MDM2 SWIB (E3 ubiquitin-protein ligase MDM2, SWIB domain) (human) (UniProt Q00987) in the same assay as above.
Sequence of MDM2 SWIB (E3 ubiquitin-protein ligase MDM2, SWIB domain) (human) (Q00987 whole entry, the tested form may be a part): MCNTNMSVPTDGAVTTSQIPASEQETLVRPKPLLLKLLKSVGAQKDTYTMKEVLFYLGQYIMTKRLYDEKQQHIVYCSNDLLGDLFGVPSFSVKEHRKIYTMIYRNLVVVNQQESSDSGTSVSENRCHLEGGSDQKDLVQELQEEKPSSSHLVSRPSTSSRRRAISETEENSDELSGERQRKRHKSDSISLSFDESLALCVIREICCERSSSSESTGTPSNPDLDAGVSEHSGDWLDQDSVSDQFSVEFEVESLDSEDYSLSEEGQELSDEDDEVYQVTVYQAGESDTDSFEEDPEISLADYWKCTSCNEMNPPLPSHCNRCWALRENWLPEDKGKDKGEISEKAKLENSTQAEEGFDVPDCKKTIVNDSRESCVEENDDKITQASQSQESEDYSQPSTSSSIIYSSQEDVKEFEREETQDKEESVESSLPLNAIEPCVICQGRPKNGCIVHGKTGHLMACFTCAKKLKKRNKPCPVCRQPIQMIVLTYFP

Binder	IC50 [µM]	Ki [µM]
TPEDDRSFQTVWATVF [KIAA1671 600-615 peptide]	73	1.76
GFEAQWAALENKSKQR [NUMB 616-630 peptide with an added N-terminal G]	130	–
THFAELWGHLDHTMFF [RNF115 69-84 peptide]	9	–

These binders were tested against TLN1 PTB (talin-1, phosphotyrosine binding-like domain) (human) (UniProt Q9Y490) in the same assay as above.
Sequence of TLN1 PTB (talin-1, phosphotyrosine binding-like domain) (human) (Q9Y490 whole entry, the tested form may be a part): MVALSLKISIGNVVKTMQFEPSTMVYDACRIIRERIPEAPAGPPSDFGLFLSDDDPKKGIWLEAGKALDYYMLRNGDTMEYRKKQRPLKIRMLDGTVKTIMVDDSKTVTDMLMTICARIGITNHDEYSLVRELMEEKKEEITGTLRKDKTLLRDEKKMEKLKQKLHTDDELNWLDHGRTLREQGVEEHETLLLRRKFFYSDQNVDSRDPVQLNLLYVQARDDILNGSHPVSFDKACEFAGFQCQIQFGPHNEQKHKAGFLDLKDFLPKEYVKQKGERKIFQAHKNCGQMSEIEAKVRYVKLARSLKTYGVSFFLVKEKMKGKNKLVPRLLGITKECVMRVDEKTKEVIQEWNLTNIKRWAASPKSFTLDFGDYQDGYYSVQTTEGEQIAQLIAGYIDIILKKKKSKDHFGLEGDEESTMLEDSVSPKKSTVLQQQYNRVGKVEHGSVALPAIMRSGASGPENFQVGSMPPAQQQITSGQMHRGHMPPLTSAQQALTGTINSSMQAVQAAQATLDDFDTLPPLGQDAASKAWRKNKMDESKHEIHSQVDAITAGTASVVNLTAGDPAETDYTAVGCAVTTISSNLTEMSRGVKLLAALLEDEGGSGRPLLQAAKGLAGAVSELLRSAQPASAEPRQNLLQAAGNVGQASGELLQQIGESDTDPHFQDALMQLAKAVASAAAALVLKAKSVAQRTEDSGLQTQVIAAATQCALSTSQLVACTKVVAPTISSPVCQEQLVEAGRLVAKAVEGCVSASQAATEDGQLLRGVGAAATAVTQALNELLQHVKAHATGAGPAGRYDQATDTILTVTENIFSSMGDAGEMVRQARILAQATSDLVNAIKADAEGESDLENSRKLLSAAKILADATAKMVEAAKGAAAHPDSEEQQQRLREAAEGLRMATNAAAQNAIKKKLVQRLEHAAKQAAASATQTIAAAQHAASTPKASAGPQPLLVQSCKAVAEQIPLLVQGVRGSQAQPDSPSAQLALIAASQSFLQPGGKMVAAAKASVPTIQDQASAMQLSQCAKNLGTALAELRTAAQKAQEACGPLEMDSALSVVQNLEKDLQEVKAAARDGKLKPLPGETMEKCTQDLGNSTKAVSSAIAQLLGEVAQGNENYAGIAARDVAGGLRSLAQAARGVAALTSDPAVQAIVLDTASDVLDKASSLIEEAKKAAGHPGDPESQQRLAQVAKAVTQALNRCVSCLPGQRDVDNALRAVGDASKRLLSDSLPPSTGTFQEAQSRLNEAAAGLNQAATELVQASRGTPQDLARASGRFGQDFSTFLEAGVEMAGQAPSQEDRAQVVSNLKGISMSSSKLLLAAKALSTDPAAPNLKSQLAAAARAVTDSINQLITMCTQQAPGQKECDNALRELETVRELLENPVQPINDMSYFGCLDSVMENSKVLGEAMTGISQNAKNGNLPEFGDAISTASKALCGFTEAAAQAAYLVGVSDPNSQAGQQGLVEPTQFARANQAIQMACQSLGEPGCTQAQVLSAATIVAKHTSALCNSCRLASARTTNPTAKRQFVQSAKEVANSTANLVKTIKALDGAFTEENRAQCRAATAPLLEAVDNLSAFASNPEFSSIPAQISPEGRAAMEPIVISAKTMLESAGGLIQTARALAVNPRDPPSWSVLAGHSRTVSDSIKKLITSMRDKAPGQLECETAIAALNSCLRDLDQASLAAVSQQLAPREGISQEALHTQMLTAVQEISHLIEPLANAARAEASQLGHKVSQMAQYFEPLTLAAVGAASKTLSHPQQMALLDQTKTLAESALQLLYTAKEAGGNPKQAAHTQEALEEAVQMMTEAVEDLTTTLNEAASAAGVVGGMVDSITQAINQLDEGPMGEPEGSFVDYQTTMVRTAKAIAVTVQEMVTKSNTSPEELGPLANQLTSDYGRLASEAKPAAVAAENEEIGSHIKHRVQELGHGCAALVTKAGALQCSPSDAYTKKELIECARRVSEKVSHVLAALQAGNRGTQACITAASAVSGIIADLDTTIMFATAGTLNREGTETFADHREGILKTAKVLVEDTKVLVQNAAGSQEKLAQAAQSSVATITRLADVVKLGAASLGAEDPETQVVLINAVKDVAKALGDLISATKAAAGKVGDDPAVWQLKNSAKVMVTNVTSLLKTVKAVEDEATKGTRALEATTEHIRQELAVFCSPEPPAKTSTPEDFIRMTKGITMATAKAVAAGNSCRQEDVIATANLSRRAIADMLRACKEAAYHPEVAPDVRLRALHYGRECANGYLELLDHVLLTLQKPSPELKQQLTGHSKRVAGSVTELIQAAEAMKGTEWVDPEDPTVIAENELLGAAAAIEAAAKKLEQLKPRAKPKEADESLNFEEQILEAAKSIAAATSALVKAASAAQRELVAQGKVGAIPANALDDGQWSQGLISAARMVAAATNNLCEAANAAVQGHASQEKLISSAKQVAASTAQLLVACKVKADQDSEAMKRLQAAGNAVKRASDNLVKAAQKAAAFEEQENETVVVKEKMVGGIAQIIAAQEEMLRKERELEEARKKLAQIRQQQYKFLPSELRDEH

Binder	IC50 [µM]	Ki [µM]
AKWDTANNPLYKEATS-NH2 [Integrin beta-3 763-778 peptide]	1430	480
VGPLTPLWTYPATAAG-NH2 [NYAP1 542-557 peptide]	62	20
FPTDERSWVYSPLHYS-NH2 [PIP5K1C 640-655 peptide, unlabelled]	0.42	0.066
DLIFTDSKLYIPLE-NH2 [TPTE 112-125 peptide]	15	4.9

Each binder was assayed against KPNA4 ARM (importin subunit alpha-3, armadillo repeat domain) (human) (UniProt O00629) (assay: fluorescence polarisation; competition: unlabelled peptide in serial dilution against KPNA4 ARM (master mix at four times the KD) with the probe FITC-Myc(320-328), probe of the major pocket; 50 mM KPO4 pH 7.5; Ki calculated from IC50).
Sequence of KPNA4 ARM (importin subunit alpha-3, armadillo repeat domain) (human) (O00629 whole entry, the tested form may be a part): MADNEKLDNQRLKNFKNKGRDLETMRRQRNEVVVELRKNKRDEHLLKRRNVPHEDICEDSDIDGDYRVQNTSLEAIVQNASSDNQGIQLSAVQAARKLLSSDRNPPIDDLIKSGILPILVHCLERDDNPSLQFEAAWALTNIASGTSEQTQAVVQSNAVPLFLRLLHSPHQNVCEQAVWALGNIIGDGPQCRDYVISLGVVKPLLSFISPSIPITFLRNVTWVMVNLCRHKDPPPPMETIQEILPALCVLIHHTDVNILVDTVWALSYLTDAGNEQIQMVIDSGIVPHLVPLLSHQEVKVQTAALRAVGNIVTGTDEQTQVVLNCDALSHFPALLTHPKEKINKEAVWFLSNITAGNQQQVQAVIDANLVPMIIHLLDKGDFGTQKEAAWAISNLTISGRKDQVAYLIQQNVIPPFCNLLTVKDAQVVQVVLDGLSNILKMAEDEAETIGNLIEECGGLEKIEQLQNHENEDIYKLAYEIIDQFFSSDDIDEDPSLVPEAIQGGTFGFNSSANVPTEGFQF

Binder	IC50 [µM]	Ki [µM]
ERENPSKRSRIERDID-NH2 [CTDSPL2 64-79 peptide]	1.9	1.2
DHQFPAKRPRLSEPQG-NH2 [HJURP 675-690 peptide]	0.076	0.038
VEPETKRLKLAASEDH-NH2 [ZRANB3 571-586 peptide]	0.24	0.14
Ac-YKCRRQRQDQTLELVGL-NH2 [NKX2-5 192-207 peptide, K194R]	98	63
EDSIEPPHKRLCLSSE-NH2 [DMTF1 44-59 peptide]	0.13	0.075
Ac-YKCKRQRQDQTLELVGL-NH2 [NKX2-5 192-207 peptide, wild type]	2.2	6.8
IPEKKQRLEEATTICL-NH2 [AFF2 864-879 peptide]	2.3	1.5
DLKRRLDSITSSQSSA-NH2 [KDR 958-973 peptide]	22	14

What follows are binders tested against KPNA4 ARM (importin subunit alpha-3, armadillo repeat domain) (human) (UniProt O00629) (assay: fluorescence polarisation; competition: unlabelled peptide in serial dilution against KPNA4 ARM (master mix at four times the KD) with the probe FITC-NCOR2(1307-1322), probe of the minor pocket; 50 mM KPO4 pH 7.5; Ki calculated from IC50).

Binder	IC50 [µM]	Ki [µM]
PFKRPHSTISDSSTSS-NH2 [PLEKHG4B 1183-1198 peptide]	3.6	1.2
Ac-EISLKR[pS]YESVEGNIK-NH2 (SMILES CC[C@H](C)[C@H](NC(=O)[C@H](CC(N)=O)NC(=O)CNC(=O)[C@H](CCC(=O)O)NC(=O)[C@@H](NC(=O)[C@H](CO)NC(=O)[C@H](CCC(=O)O)NC(=O)[C@H](Cc1ccc(O)cc1)NC(=O)[C@H](COP(=O)(O)O)NC(=O)[C@H](CCCNC(=N)N)NC(=O)[C@H](CCCCN)NC(=O)[C@H](CC(C)C)NC(=O)[C@H](CO)NC(=O)[C@@H](NC(=O)[C@H](CCC(=O)O)NC(C)=O)[C@@H](C)CC)C(C)C)C(=O)N[C@@H](CCCCN)C(N)=O) [NCOR1 1240-1255 peptide, pS1246]	240	81
PKRTYDMMEGRVGRAI-NH2 [NCOR2 1307-1322 peptide, unlabelled]	0.12	–
DHQFPAKRPRLSEPQG-NH2 [HJURP 675-690 peptide]	170	63
Ac-EI[pS]LKRSYESVEGNIK-NH2 (SMILES CC[C@H](C)[C@H](NC(=O)[C@H](CC(N)=O)NC(=O)CNC(=O)[C@H](CCC(=O)O)NC(=O)[C@@H](NC(=O)[C@H](CO)NC(=O)[C@H](CCC(=O)O)NC(=O)[C@H](Cc1ccc(O)cc1)NC(=O)[C@H](CO)NC(=O)[C@H](CCCNC(=N)N)NC(=O)[C@H](CCCCN)NC(=O)[C@H](CC(C)C)NC(=O)[C@H](COP(=O)(O)O)NC(=O)[C@@H](NC(=O)[C@H](CCC(=O)O)NC(C)=O)[C@@H](C)CC)C(C)C)C(=O)N[C@@H](CCCCN)C(N)=O) [NCOR1 1240-1255 peptide, pS1242]	31	10
ELKRKLEQEQKLVEVL-NH2 [MKL2 572-587 peptide]	36	13
Ac-EISLKRS[pY]ESVEGNIK-NH2 (SMILES CC[C@H](C)[C@H](NC(=O)[C@H](CC(N)=O)NC(=O)CNC(=O)[C@H](CCC(=O)O)NC(=O)[C@@H](NC(=O)[C@H](CO)NC(=O)[C@H](CCC(=O)O)NC(=O)[C@H](Cc1ccc(OP(=O)(O)O)cc1)NC(=O)[C@H](CO)NC(=O)[C@H](CCCNC(=N)N)NC(=O)[C@H](CCCCN)NC(=O)[C@H](CC(C)C)NC(=O)[C@H](CO)NC(=O)[C@@H](NC(=O)[C@H](CCC(=O)O)NC(C)=O)[C@@H](C)CC)C(C)C)C(=O)N[C@@H](CCCCN)C(N)=O) [NCOR1 1240-1255 peptide, pY1247]	21	6.8
STMKRKHDEIQRSLPV-NH2 [ZBED9 651-666 peptide]	2.4	0.77
Ac-EISLKRSYESVEGNIK-NH2 [NCOR1 1240-1255 peptide, unphosphorylated]	11	3.6
AGVKRSAAEMYGSVTE-NH2 [HNRNPC 95-110 peptide]	0.5	0.093
GVKRTYSEVYPGQQYL-NH2 [ZMIZ2 264-279 peptide]	0.43	0.054
SLAPVKRTYEQMEFPL-NH2 [ADNP 711-726 peptide]	1.3	0.38
IPEKKQRLEEATTICL-NH2 [AFF2 864-879 peptide]	3800	1420
GKKRTFDETVSTYVPL-NH2 [TPX2 312-327 peptide]	0.41	0.047
DLKRRLDSITSSQSSA-NH2 [KDR 958-973 peptide]	24	8.9
